In test [1] the target is MUC-1 mucin expressed on the surface of PHA activated human T-cells (human) (UniProt P15941). As to the kind of experiment: cell-based or functional assay.
Test [2] concerns the target Anti-human-MUC-1 mAb B27.29. As to the kind of experiment: flow cytometry; soluble MUC-1 mucin (1 µg) inhibits B27.29 staining of 3 day PHA activated T-cells. (In flow cytometry, cells or beads pass a laser one at a time.)
For test [3], the target named is Anti-human-MUC-1 mAb B27.29. As to the kind of experiment: flow cytometry; soluble MUC-1 mucin (50 µg) inhibits B27.29 staining of 3 day PHA activated T-cells.
The target in test [4] is Anti-human-MUC-1 mAb B27.29. As to the kind of experiment: flow cytometry; soluble MUC-1 mucin (10 µg) inhibits B27.29 staining of 3 day PHA activated T-cells.

In test [1], Anti-human-MUC-1 mAb B27.29 (antibody) gave an Effect on T-cell proliferation (% Inhibition) at 5 µg/ml of 58% and an Effect on T-cell proliferation (% Inhibition) at 25 µg/ml of 82%.

Turning to “soluble MUC-1 mucin (from UniProt P15941 24-1097)”, the % inhibition of binding in test [2] is 25%; in test [3], 65%; in test [4], 45%.
